Values quoted from earlier work, collected in publication PMC6627586.

Molecular target: ceruloplasmin (Homo sapiens) (UniProt P00450)
UniProt P00450, sequence (P00450 20-1065): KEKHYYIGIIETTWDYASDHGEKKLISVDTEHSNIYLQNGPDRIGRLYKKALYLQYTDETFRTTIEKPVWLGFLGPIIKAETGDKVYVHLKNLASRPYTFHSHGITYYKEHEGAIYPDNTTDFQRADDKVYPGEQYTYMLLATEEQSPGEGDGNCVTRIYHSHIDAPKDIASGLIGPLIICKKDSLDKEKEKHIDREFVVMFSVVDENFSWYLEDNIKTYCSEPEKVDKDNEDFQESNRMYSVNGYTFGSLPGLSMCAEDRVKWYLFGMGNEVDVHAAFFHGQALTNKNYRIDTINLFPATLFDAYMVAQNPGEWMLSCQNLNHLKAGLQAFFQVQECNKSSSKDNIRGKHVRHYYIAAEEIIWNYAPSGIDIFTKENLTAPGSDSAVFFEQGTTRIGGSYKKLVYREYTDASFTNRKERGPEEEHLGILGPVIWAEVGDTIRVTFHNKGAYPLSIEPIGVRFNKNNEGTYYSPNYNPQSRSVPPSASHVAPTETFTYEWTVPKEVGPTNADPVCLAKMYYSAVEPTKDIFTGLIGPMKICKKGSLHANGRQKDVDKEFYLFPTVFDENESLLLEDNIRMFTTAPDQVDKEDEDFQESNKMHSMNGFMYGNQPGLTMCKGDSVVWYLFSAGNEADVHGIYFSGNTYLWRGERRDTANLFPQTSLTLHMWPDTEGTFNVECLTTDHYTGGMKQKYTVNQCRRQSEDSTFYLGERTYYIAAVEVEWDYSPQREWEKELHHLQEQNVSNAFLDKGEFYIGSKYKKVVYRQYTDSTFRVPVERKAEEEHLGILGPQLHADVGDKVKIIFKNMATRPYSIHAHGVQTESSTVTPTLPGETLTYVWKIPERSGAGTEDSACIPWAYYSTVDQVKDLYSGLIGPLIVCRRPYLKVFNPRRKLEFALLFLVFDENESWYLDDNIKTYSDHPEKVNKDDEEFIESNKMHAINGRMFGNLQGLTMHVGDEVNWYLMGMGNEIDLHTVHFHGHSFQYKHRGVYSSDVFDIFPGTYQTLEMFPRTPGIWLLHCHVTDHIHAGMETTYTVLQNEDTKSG

CTR1 second extracellular loop fragment (from UniProt O15431)
Kd: 1500 nM
